Laboratory results: patent US12295987B2, “Method of using a GIP/GLP1 co-agonist for diabetes” (Eli Lilly and Company, priority 2018, dated 2025)

Each substance was assayed against T1, human gastric inhibitory peptide receptor (hGIPR) (Homo sapiens, UniProt P48546) (assay: cAMP pharmacological functional assay in presence of 0.1% casein, hGIPR). Settings: ratio of hGIPR to hGLP1R cAMP EC50 ratios.
T1 construct: expressed in transfected cells; host or cells: HEK293
T1 sequence (P48546 22-466): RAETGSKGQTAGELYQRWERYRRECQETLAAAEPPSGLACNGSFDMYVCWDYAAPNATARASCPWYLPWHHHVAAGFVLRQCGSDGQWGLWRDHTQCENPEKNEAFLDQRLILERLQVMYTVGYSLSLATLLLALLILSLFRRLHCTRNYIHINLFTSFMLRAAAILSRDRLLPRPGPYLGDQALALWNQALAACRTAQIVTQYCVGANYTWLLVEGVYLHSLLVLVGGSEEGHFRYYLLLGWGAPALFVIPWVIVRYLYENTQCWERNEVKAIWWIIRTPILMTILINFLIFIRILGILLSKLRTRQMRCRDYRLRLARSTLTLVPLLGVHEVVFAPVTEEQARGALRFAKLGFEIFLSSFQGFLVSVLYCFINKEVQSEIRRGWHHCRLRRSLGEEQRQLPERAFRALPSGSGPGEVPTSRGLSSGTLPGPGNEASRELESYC
Assay type: cell-based

| Substance | [hGIPR/hGLP1R] EC50 Ratio |
| --- | --- |
| Y-Aib-EGT-αMeF(2F)-TSDYSI-αMeL-LDEK((2-[2-(2-Amino-ethoxy)-ethoxy]-acetyl)2-(γGlu)-CO—(CH2)18—CO2H)AQ-Aib-EFIAYLIEGGPSSGAPPPS-NH2 (YXEGTXTSDYSIXLDEKAQXEFIAYLIEGGPSSGAPPPS; Aib, αMeF(2F), αMeL; acylated lysine C20 diacid; amide; (2)..(2) Xaa at position 2 is Aib; (6)..(6) Xaa at position 6 is alpha-methyl-Phe(2F); (13)..(13) Xaa at position 13 is alpha-methyl-Leu; MOD_RES (17)..(17) Lys at position 17 is chemically modified by conjugation of the epsilon-amino group of the Lys side chain with (2-[2-(2-amino-ethoxy)-ethoxy]-acetyl)2-(gamma-Glu)-CO-(CH2)18- CO2H; (20)..(20) Xaa at position 20 is Aib; MOD_RES (39)..(39) Ser a) [Peptide 148] | 3.14 |
| Y-Aib-EGT-αMeF(2F)-TSDYSI-αMeL-LDEK((2-[2-(2-Amino-ethoxy)-ethoxy]-acetyl)2-(γGlu)-CO—(CH2)18—CO2H)AQ-Aib-EFIE-αMeY-LIEGGPSSGAPPPS-NH2 (YXEGTXTSDYSIXLDEKAQXEFIEXLIEGGPSSGAPPPS; Aib, αMeF(2F), αMeL, αMeY; lipidated K; amide; (2)..(2) Xaa at position 2 is Aib; (6)..(6) Xaa at position 6 is alpha-methyl-Phe(2F); (13)..(13) Xaa at position 13 is alpha-methyl-Leu; MOD_RES (17)..(17) Lys at position 17 is chemically modified by conjugation of the epsilon-amino group of the Lys side chain with (2-[2-(2-amino-ethoxy)-ethoxy]-acetyl)2-(gamma-Glu)-CO-(CH2)18- CO2H; (20)..(20) Xaa at position 20 is Aib; (25)..(25) Xaa at positi) [Peptide 223] | 3.05 |
| Y-Aib-EGT-αMeF(2F)-TSDYSI-αMeL-LDEK((2-[2-(2-Amino-ethoxy)-ethoxy]-acetyl)2-(γGlu)-CO—(CH2)18—CO2H)AQ-Aib-EFIEYLIEGG-NH2 (YXEGTXTSDYSIXLDEKAQXEFIEYLIEGG; Aib, αMe residues, C20 diacid lipidation, C-amide; (2)..(2) Xaa at position 2 is Aib; (6)..(6) Xaa at position 6 is alpha-methyl-Phe(2F); (13)..(13) Xaa at position 13 is alpha-methyl-Leu; MOD_RES (17)..(17) Lys at position 17 is chemically modified by conjugation of the epsilon-amino group of the Lys side chain with (2-[2-(2-amino-ethoxy)-ethoxy]-acetyl)2-(gamma-Glu)-CO-(CH2)18- CO2H; (20)..(20) Xaa at position 20 is Aib; MOD_RES (30)..(30) Gly a) [Peptide 103] | 3.07 |
| Y-Aib-EGT-αMeF(2F)-TSDYSI-αMeL-LDEK((2-[2-(2-Amino-ethoxy)-ethoxy]-acetyl)2-(γGlu)-CO—(CH2)18—CO2H)AQ-Aib-EFIEYLIEGGPSSGAPPPS-NH2 (YXEGTXTSDYSIXLDEKAQXEFIEYLIEGGPSSGAPPPS; Aib, αMeF(2F), αMeL; acylated lysine C20 diacid; amide; (2)..(2) Xaa at position 2 is Aib; (6)..(6) Xaa at position 6 is alpha-methyl-Phe(2F); (13)..(13) Xaa at position 13 is alpha-methyl-Leu; MOD_RES (17)..(17) Lys at position 17 is chemically modified by conjugation of the epsilon-amino group of the Lys side chain with (2-[2-(2-amino-ethoxy)-ethoxy]-acetyl)2-(gamma-Glu)-CO-(CH2)18- CO2H; (20)..(20) Xaa at position 20 is Aib; MOD_RES (39)..(39) Ser a) [Peptide 118] | 3.03 |
| Y-Aib-EGT-αMeF(2F)-TSDYSI-αMeL-LDEK((2-[2-(2-Amino-ethoxy)-ethoxy]-acetyl)2-(γGlu)-CO—(CH2)18—CO2H)AQ-Aib-EFIHYLIEGGPSSGAPPPS-NH2 (YXEGTXTSDYSIXLDEKAQXEFIHYLIEGGPSSGAPPPS; Aib, αMeF(2F), αMeL; acylated lysine C20 diacid; amide; (2)..(2) Xaa at position 2 is Aib; (6)..(6) Xaa at position 6 is alpha-methyl-Phe(2F); (13)..(13) Xaa at position 13 is alpha-methyl-Leu; MOD_RES (17)..(17) Lys at position 17 is chemically modified by conjugation of the epsilon-amino group of the Lys side chain with (2-[2-(2-amino-ethoxy)-ethoxy]-acetyl)2-(gamma-Glu)-CO-(CH2)18- CO2H; (20)..(20) Xaa at position 20 is Aib; MOD_RES (39)..(39) Ser a) [Peptide 153] | 3.39 |
| Y-Aib-EGT-αMeF(2F)-TSDYSI-αMeL-LDEK((2-[2-(2-Amino-ethoxy)-ethoxy]-acetyl)2-(γGlu)-CO—(CH2)18—CO2H)AQ-Aib-EFIPYLIEGGPSSGAPPPS-NH2 (YXEGTXTSDYSIXLDEKAQXEFIPYLIEGGPSSGAPPPS; Aib, αMeF(2F), αMeL; acylated lysine C20 diacid; amide; (2)..(2) Xaa at position 2 is Aib; (6)..(6) Xaa at position 6 is alpha-methyl-Phe(2F); (13)..(13) Xaa at position 13 is alpha-methyl-Leu; MOD_RES (17)..(17) Lys at position 17 is chemically modified by conjugation of the epsilon-amino group of the Lys side chain with (2-[2-(2-amino-ethoxy)-ethoxy]-acetyl)2-(gamma-Glu)-CO-(CH2)18- CO2H; (20)..(20) Xaa at position 20 is Aib; MOD_RES (39)..(39) Ser a) [Peptide 151] | 9.42 |
| Y-Aib-EGT-αMeF(2F)-TSDYSI-αMeL-LDEK((2-[2-(2-Amino-ethoxy)-ethoxy]-acetyl)2-(γGlu)-CO—(CH2)18—CO2H)AQ-Aib-EFISYLIEGGPSSGAPPPS-NH2 (YXEGTXTSDYSIXLDEKAQXEFISYLIEGGPSSGAPPPS; Aib, αMeF(2F), αMeL; acylated lysine C20 diacid; amide; (2)..(2) Xaa at position 2 is Aib; (6)..(6) Xaa at position 6 is alpha-methyl-Phe(2F); (13)..(13) Xaa at position 13 is alpha-methyl-Leu; MOD_RES (17)..(17) Lys at position 17 is chemically modified by conjugation of the epsilon-amino group of the Lys side chain with (2-[2-(2-amino-ethoxy)-ethoxy]-acetyl)2-(gamma-Glu)-CO-(CH2)18- CO2H; (20)..(20) Xaa at position 20 is Aib; MOD_RES (39)..(39) Ser a) [Peptide 150] | 3.34 |
